Laboratory results as given in patent US11541128B2, “Multi-drug antibody drug conjugates” (Seagen Inc., priority 2016, dated 2023).

How the values were obtained:
[1] = system: CD30(−) U-266 cells; experiment: Binding to CD30(−) cells; conditions: CD30(−) U-266 cells (not shown)
[2] = system: SU-DHL-16; experiment: In vitro cytotoxicity, SU-DHL-16; type: cell-based; conditions: co-administration IC50 vs co-conjugate IC50
[3] = system: Granta-519; experiment: In vitro cytotoxicity, Granta-519; type: cell-based; conditions: co-administration IC50 vs co-conjugate IC50
[4] = system: Raji; experiment: In vitro cytotoxicity, Raji; type: cell-based; conditions: hBU12 conjugates targeting CD19
[5] = system: WSU-DLCL2; experiment: In vitro cytotoxicity, WSU-DLCL2; type: cell-based; conditions: hBU12 conjugates targeting CD19
[6] = system: RL; experiment: In vitro cytotoxicity, RL; type: cell-based; conditions: hBU12 conjugates targeting CD19
[7] = system: Nalm-6; experiment: In vitro cytotoxicity, Nalm-6; type: cell-based; conditions: hBU12 conjugates targeting CD19
[8] = system: MCF-7 breast carcinoma cells; experiment: Colony forming assay, MCF-7; type: cell-based; conditions: ADC 100 ng/mL for 48 hours, recovery 7-9 days, N=2
Method: This analysis was conducted on either JHH-7 (hepatocarcinoma cells) or MCF-7 (LIV-1positive) cells using antigen specific dual-auristatin ADCs. […] A dual-auristatin ADC targeting the LIV-1antigen on MCF-7 cells also allowed for less outgrowth of resistant colonies compared to single-drug ADCs.
For testing of LIV-1 targeted ADCs, MCF-7 breast carcinoma cells (ATCC) were plated in 6-well tissue culture plates at a density of 10,000 cells per well. ADCs were added to cells at a concentration of 100 ng/mL for 48 hours. At this time, media was removed and cells were washed with PBS. Fresh media was added and the cells allowed to recover for 7-9 days. Cells were then washed with PBS, fixed with 3.7% paraformaldehyde, stained with 0.5% crystal violet, and then counted. Each condition was conducted with N=2.

| Molecule | IC50 [4] | IC50 [5] | IC50 [6] | IC50 [7] | further results |
| --- | --- | --- | --- | --- | --- |
| cAC10: Chimeric anti-CD30 monoclonal antibody, naked antibody |  |  |  |  | binding to CD30(−) U-266 cells [1]: Neither cAC10 or cAC10-4-(3-1) bound |
| hBU12 Co-Conjugate (conjugate, chains of the INN, looked up, co-conjugate with two drug payloads) VH: QVQLQESGPGLVKPSQTLSLTCTVSGGSISTSGMGVGWIRQHPGKGLEWIGHIWWDDDKRYNPALKSRVTISVDTSKNQFSLKLSSVTAADTAVYYCARMELWSYYFDYWGQGTLVTVSS VL: EIVLTQSPATLSLSPGERATLSCSASSSVSYMHWYQQKPGQAPRLLIYDTSKLASGIPARFSGSGSGTDFTLTISSLEPEDVAVYYCFQGSVYPFTFGQGTKLEIK |  |  |  |  | Fold difference [2]: 2.5; Fold difference [3]: 41.5 |
| hBU12-Linking Assembly Unit Aa-Comp. Aa (16) (conjugate, chains of the INN, looked up, Linking Assembly Unit Aa-Compound Aa drug conjugate) VH: QVQLQESGPGLVKPSQTLSLTCTVSGGSISTSGMGVGWIRQHPGKGLEWIGHIWWDDDKRYNPALKSRVTISVDTSKNQFSLKLSSVTAADTAVYYCARMELWSYYFDYWGQGTLVTVSS VL: EIVLTQSPATLSLSPGERATLSCSASSSVSYMHWYQQKPGQAPRLLIYDTSKLASGIPARFSGSGSGTDFTLTISSLEPEDVAVYYCFQGSVYPFTFGQGTKLEIK | 2.1 ng/mL | 1.5 ng/mL |  |  |  |
| hBU12-Linking Assembly Unit Aa-Comp. Ab (8) (conjugate, chains of the INN, looked up, linker assembly with compound Ab) VH: QVQLQESGPGLVKPSQTLSLTCTVSGGSISTSGMGVGWIRQHPGKGLEWIGHIWWDDDKRYNPALKSRVTISVDTSKNQFSLKLSSVTAADTAVYYCARMELWSYYFDYWGQGTLVTVSS VL: EIVLTQSPATLSLSPGERATLSCSASSSVSYMHWYQQKPGQAPRLLIYDTSKLASGIPARFSGSGSGTDFTLTISSLEPEDVAVYYCFQGSVYPFTFGQGTKLEIK |  |  | 340 ng/mL | 5 ng/mL |  |
| hBU12-Linking Assembly Unit Aa-Comp. Ab (16) (conjugate, chains of the INN, looked up, linker assembly with compound Ab) VH: QVQLQESGPGLVKPSQTLSLTCTVSGGSISTSGMGVGWIRQHPGKGLEWIGHIWWDDDKRYNPALKSRVTISVDTSKNQFSLKLSSVTAADTAVYYCARMELWSYYFDYWGQGTLVTVSS VL: EIVLTQSPATLSLSPGERATLSCSASSSVSYMHWYQQKPGQAPRLLIYDTSKLASGIPARFSGSGSGTDFTLTISSLEPEDVAVYYCFQGSVYPFTFGQGTKLEIK | 6.9 ng/mL | 8.6 ng/mL |  |  |  |
| hBU12-Linking Assembly Unit Aa-Comp. Ah (8) (conjugate, chains of the INN, looked up, linker assembly with compound Ah) VH: QVQLQESGPGLVKPSQTLSLTCTVSGGSISTSGMGVGWIRQHPGKGLEWIGHIWWDDDKRYNPALKSRVTISVDTSKNQFSLKLSSVTAADTAVYYCARMELWSYYFDYWGQGTLVTVSS VL: EIVLTQSPATLSLSPGERATLSCSASSSVSYMHWYQQKPGQAPRLLIYDTSKLASGIPARFSGSGSGTDFTLTISSLEPEDVAVYYCFQGSVYPFTFGQGTKLEIK | 97 ng/mL | 7 ng/mL | 60 ng/mL | 9 ng/mL |  |
| hBU12-Linking Assembly Unit Aa-Comp. Aa (8) (conjugate, chains of the INN, looked up, linker assembly with compound Aa) VH: QVQLQESGPGLVKPSQTLSLTCTVSGGSISTSGMGVGWIRQHPGKGLEWIGHIWWDDDKRYNPALKSRVTISVDTSKNQFSLKLSSVTAADTAVYYCARMELWSYYFDYWGQGTLVTVSS VL: EIVLTQSPATLSLSPGERATLSCSASSSVSYMHWYQQKPGQAPRLLIYDTSKLASGIPARFSGSGSGTDFTLTISSLEPEDVAVYYCFQGSVYPFTFGQGTKLEIK |  |  | 4 ng/mL | 8 ng/mL |  |
| hBU12-Linking Assembly Unit Aa-Comp. Aa (8)-Comp. Ah (8) (conjugate, chains of the INN, looked up, linker assembly with compounds Aa and Ah) VH: QVQLQESGPGLVKPSQTLSLTCTVSGGSISTSGMGVGWIRQHPGKGLEWIGHIWWDDDKRYNPALKSRVTISVDTSKNQFSLKLSSVTAADTAVYYCARMELWSYYFDYWGQGTLVTVSS VL: EIVLTQSPATLSLSPGERATLSCSASSSVSYMHWYQQKPGQAPRLLIYDTSKLASGIPARFSGSGSGTDFTLTISSLEPEDVAVYYCFQGSVYPFTFGQGTKLEIK | 5 ng/mL | 2 ng/mL | 2 ng/mL |  |  |
| hBU12-Linking Assembly Unit Aa-Comp. Ab (8) Comp. Aa (8) (conjugate, chains of the INN, looked up, linker assembly with compounds Ab and Aa) VH: QVQLQESGPGLVKPSQTLSLTCTVSGGSISTSGMGVGWIRQHPGKGLEWIGHIWWDDDKRYNPALKSRVTISVDTSKNQFSLKLSSVTAADTAVYYCARMELWSYYFDYWGQGTLVTVSS VL: EIVLTQSPATLSLSPGERATLSCSASSSVSYMHWYQQKPGQAPRLLIYDTSKLASGIPARFSGSGSGTDFTLTISSLEPEDVAVYYCFQGSVYPFTFGQGTKLEIK | 1.6 ng/mL |  | 1 ng/mL | 2 ng/mL |  |
| hLIV22-Linking Assembly Unit Aa (8)-MMAE (16) (conjugate, chains of the INN, looked up, Linking Assembly Unit Aa-MMAE conjugate) VH: QVQLVQSGAEVKKPGASVKVSCKASGLTIEDYYMHWVRQAPGQGLEWMGWIDPENGDTEYGPKFQGRVTMTRDTSINTAYMELSRLRSDDTAVYYCAVHNAHYGTWFAYWGQGTLVTVSS VL: DVVMTQSPLSLPVTLGQPASISCRSSQSLLHSSGNTYLEWYQQRPGQSPRPLIYKISTRFSGVPDRFSGSGSGTDFTLKISRVEAEDVGVYYCFQGSHVPYTFGGGTKVEIK |  |  |  |  | Colony forming units [8]: 42.5 |
| hLIV22-Linking Assembly Unit Aa (8)-Comp. Aa (8)-MMAE (8) (conjugate, chains of the INN, looked up, Linking Assembly Unit Aa, Compound Aa, MMAE conjugate) VH: QVQLVQSGAEVKKPGASVKVSCKASGLTIEDYYMHWVRQAPGQGLEWMGWIDPENGDTEYGPKFQGRVTMTRDTSINTAYMELSRLRSDDTAVYYCAVHNAHYGTWFAYWGQGTLVTVSS VL: DVVMTQSPLSLPVTLGQPASISCRSSQSLLHSSGNTYLEWYQQRPGQSPRPLIYKISTRFSGVPDRFSGSGSGTDFTLKISRVEAEDVGVYYCFQGSHVPYTFGGGTKVEIK |  |  |  |  | Colony forming units [8]: 19.5 |
